Experimental data reported in paper PMC3551895.

Molecular target: vibrillin βγ-crystallin domain (Vibrio cholerae)
Assay: SEC

For “vibrillin βγ-crystallin domain (domain or fragment)”, the stoichiometry N was 6.
